B1: Caspase recruitment domain-containing protein 9 (Homo sapiens), Q9H257 (parent)
chain: MSDYENDDECWSVLEGFRVTLTSVIDPSRITPYLRQCKVLNPDDEEQVLSDPNLVIRKRKVGVLLDILQRTGHKGYVAFLESLELYYPQLYKKVTGKEPARVFSMIIDASGESGLTQLLMTEVMKLQKKVQDLTALLSSKDDFIKELRVKDSLLRKHQERVQRLKEECEAGSRELKRCKEENYDLAMRLAHQSEEKGAALMRNRDLQLEIDQLKHSLMKAEDDCKVERKHTLKLRHAMEQRPSQELLWELQQEKALLQARVQELEASVQEGKLDRSSPYIQVLEEDWRQALRDHQEQANTIFSLRKDLRQGEARRLRCMEEKEMFELQCLALRKDSKMYKDRIEAILLQMEEVAIERDQAIATREELHAQHARGLQEKDALRKQVRELGEKADELQLQVFQCEAQLLAVEGRLRRQQLETLVLSSDLEDGSPRRSQELSLPQDLEDTQLSDKGCLAGGGSPKQPFAALHQEQVLRNPHDAGLSSGEPPEKERRRLKESFENYRRKRALRKMQKGWRQGEEDRENTTGSDNTDTEGS
B2: Meiotic recombination protein DMC1/LIM15 homolog (Homo sapiens), Q14565 (parent)
chain: MKEDQVVAEEPGFQDEEESLFQDIDLLQKHGINVADIKKLKSVGICTIKGIQMTTRRALCNVKGLSEAKVDKIKEAANKLIEPGFLTAFEYSEKRKMVFHITTGSQEFDKLLGGGIESMAITEAFGEFRTGKTQLSHTLCVTAQLPGAGGYPGGKIIFIDTENTFRPDRLRDIADRFNVDHDAVLDNVLYARAYTSEHQMELLDYVAAKFHEEAGIFKLLIIDSIMALFRVDFSGRGELAERQQKLAQMLSRLQKISEEYNVAVFVTNQMTADPGATMTFQADPKKPIGGHILAHASTTRISLRKGRGELRIAKIYDSPEMPENEATFAITAGGIGDAKE
B3: Radial spoke head protein 3 homolog (Homo sapiens), Q86UC2 (parent)
chain: MTVKPAKAASLARNLAKRRRTYLGGAAGRSQEPEVPCAAVLPGKPGDRNCPEFPPPDRTLGCWATDAAPAAGLCGAGSEPSIAPTSCAGNLPSRPPPLLSPLLASRNPCPWHYLHLSGSHNTLAPTCFKAKLHRKRGSQPPDMASALTDRTSRAPSTYTYTSRPRALPCQRSRYRDSLTQPDEEPMHYGNIMYDRRVIRGNTYALQTGPLLGRPDSLELQRQREARKRALARKQAQEQLRPQTPEPVEGRKHVDVQTELYLEEIADRIIEVDMECQTDAFLDRPPTPLFIPAKTGKDVATQILEGELFDFDLEVKPVLEVLVGKTIEQSLLEVMEEEELANLRASQREYEELRNSERAEVQRLEEQERRHREEKERRKKQQWEIMHKHNETSQKIAARAFAQRYLADLLPSVFGSLRDSGYFYDPIERDIEIGFLPWLMNEVEKTMEYSMVGRTVLDMLIREVVEKRLCMYEHGEDTHQSPEPEDEPGGPGAMTESLEASEFLEQSMSQTRELLLDGGYLQRTTYDRRSSQERKFMEERELLGQDEETAMRKSLGEEELS
partner: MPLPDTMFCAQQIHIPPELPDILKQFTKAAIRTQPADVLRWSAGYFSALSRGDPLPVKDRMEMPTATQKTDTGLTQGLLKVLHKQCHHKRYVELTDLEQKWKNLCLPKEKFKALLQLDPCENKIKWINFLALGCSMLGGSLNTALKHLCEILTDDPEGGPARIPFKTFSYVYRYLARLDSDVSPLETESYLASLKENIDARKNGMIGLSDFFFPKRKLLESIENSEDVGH
B4: Keratin, type I cuticular Ha3-II (Homo sapiens), Q14525 (parent)
chain: MPYNFCLPSLSCRTSCSSRPCVPPSCHGYTLPGACNIPANVSNCNWFCEGSFNGSEKETMQFLNDRLASYLEKVRQLERDNAELENLIRERSQQQEPLLCPSYQSYFKTIEELQQKILCSKSENARLVVQIDNAKLAADDFRTKYQTEQSLRQLVESDINSLRRILDELTLCRSDLEAQMESLKEELLSLKQNHEQEVNTLRCQLGDRLNVEVDAAPAVDLNQVLNETRNQYEALVETNRREVEQWFATQTEELNKQVVSSSEQLQSYQAEIIELRRTVNALEIELQAQHNLRYSLENTLTESEARYSSQLSQVQSLITNVESQLAEIRSDLERQNQEYQVLLDVRARLECEINTYRSLLESEDCKLPSNPCATTNACEKPIGSCVTNPCGPRSRCGPCNTFGY
B5: Actin-associated protein FAM107A (Homo sapiens), O95990 (parent)
chain: MYSEIQRERADIGGLMARPEYREWNPELIKPKKLLNPVKASRSHQELHRELLMNHRRGLGVDSKPELQRVLEHRRRNQLIKKKKEELEAKRLQCPFEQELLRRQQRLNQLEKPPEKEEDHAPEFIKVRENLRRIATLTSEEREL
partner: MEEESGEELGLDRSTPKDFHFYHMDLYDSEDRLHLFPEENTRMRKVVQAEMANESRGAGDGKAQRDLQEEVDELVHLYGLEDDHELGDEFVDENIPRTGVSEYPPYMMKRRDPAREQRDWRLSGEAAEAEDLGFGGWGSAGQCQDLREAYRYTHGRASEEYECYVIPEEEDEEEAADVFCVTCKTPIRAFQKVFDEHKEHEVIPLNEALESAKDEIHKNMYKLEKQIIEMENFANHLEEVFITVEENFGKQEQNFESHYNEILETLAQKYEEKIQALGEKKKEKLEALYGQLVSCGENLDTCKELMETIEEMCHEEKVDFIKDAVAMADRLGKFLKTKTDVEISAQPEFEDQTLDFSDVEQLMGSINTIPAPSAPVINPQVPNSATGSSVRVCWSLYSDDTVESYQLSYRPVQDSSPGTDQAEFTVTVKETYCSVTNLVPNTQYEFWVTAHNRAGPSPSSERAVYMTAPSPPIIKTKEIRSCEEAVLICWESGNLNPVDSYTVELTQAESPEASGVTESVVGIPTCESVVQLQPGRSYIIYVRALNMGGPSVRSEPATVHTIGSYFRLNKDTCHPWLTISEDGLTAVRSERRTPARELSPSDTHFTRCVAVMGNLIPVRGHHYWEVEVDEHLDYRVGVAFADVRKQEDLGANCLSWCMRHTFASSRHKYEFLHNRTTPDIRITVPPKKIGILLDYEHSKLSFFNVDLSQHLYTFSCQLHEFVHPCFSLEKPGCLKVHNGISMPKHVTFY
B6: Migration and invasion-inhibitory protein (Homo sapiens), Q5JXC2 (parent)
chain: MVEAEELAQLRLLNLELLRQLWVGQDAVRRSVARAASESSLESSSSYNSETPSTPETSSTSLSTSCPRGRSSVWGPPDACRGDLRDVARSGVASLPPAKCQHQESLGRPRPHSAPSLGTSSLRDPEPSGRLGDPGPQEAQTPRSILAQQSKLSKPRVTFSEESAVPKRSWRLRPYLGYDWIAGSLDTSSSITSQPEAFFSKLQEFRETNKEECICSHPEPQLPGLRESSGSGVEEDHECVYCYRVNRRLFPVPVDPGTPCRLCRTPRDQQGPGTLAQPAHVRVSIPLSILEPPHRYHIHRRKSFDASDTLALPRHCLLGWDIFPPKSEKSSAPRNLDLWSSVSAEAQHQKLSGTSSPFHPASPMQMLPPTPTWSVPQVPRPHVPRQKP
B7: "tRNA (guanine-N(7)-)-methyltransferase non-catalytic subunit WDR4" (Homo sapiens), P57081 (parent)
chain: MAGSVGLALCGQTLVVRGGSRFLATSIASSDDDSLFIYDCSAAEKKSQENKGEDAPLDQGSGAILASTFSKSGSYFALTDDSKRLILFRTKPWQCLSVRTVARRCTALTFIASEEKVLVADKSGDVYSFSVLEPHGCGRLELGHLSMLLDVAVSPDDRFILTADRDEKIRVSWAAAPHSIESFCLGHTEFVSRISVVPTQPGLLLSSSGDGTLRLWEYRSGRQLHCCHLASLQELVDPQAPQKFAASRIAFWCQENCVALLCDGTPVVYIFQLDARRQQLVYRQQLAFQHQVWDVAFEETQGLWVLQDCQEAPLVLYRPVGDQWQSVPESTVLKKVSGVLRGNWAMLEGSAGADASFSSLYKATFDNVTSYLKKKEERLQQQLEKKQRRRSPPPGPDGHAKKMRPGEATLSC
partner: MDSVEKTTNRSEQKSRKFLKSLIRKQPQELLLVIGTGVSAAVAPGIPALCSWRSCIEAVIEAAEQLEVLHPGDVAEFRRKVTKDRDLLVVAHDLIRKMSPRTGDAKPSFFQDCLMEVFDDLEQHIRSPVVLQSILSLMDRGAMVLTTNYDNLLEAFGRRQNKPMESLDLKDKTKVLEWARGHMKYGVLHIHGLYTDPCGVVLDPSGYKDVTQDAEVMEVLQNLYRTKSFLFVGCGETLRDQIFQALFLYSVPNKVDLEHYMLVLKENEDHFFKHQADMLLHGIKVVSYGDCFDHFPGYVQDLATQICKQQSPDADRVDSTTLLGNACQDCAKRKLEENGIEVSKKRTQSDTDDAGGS

The variants in one assay derive from B1. Particulars: with KIAA0408, Q6ZU52.
KIAA0408, Q6ZU52, sequence (Q6ZU52 whole entry): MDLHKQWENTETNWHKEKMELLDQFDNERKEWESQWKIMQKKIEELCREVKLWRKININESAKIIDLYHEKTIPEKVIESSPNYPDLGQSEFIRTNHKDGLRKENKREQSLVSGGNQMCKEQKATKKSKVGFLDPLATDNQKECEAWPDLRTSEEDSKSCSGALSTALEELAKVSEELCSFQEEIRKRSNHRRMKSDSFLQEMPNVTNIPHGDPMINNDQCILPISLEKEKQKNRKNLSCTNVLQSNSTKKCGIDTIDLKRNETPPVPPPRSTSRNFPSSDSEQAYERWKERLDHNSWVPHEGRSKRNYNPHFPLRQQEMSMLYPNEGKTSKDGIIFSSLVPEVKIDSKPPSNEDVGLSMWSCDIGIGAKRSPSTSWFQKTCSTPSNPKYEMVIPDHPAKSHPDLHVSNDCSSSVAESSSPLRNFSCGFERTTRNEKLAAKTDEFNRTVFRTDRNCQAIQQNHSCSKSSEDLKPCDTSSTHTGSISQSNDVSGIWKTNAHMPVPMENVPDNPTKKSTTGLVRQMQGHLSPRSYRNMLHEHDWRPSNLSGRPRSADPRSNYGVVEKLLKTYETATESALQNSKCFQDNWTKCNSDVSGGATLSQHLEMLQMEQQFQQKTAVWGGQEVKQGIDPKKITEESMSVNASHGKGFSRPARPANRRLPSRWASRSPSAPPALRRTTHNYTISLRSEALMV
As to S12N, the “effect of a mutation on the interaction” value is listed as “with no effect”.

In a further assay the parent is B1. Particulars: with tri23_human TRIM23, P36406.
tri23_human TRIM23, P36406, sequence (P36406 whole entry): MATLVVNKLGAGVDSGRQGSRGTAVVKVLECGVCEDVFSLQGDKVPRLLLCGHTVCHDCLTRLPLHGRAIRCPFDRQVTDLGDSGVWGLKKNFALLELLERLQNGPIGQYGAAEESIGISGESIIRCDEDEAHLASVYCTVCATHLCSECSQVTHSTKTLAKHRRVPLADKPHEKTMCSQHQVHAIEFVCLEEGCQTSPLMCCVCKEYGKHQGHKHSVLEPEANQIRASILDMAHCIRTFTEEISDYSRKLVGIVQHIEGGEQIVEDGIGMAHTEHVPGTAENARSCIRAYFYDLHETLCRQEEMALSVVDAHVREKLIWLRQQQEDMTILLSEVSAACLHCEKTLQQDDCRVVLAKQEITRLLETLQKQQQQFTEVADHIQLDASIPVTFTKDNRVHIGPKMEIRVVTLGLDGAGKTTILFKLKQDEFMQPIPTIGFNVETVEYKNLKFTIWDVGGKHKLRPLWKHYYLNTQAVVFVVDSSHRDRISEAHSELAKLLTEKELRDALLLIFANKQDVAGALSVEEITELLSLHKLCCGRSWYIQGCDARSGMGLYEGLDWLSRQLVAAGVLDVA
For the variant R173H, the “effect of a mutation on the interaction” value is recorded as “with no effect”.

In another assay the parent is B1. Particulars: with KRT19, P08727.
KRT19, P08727, sequence (P08727 whole entry): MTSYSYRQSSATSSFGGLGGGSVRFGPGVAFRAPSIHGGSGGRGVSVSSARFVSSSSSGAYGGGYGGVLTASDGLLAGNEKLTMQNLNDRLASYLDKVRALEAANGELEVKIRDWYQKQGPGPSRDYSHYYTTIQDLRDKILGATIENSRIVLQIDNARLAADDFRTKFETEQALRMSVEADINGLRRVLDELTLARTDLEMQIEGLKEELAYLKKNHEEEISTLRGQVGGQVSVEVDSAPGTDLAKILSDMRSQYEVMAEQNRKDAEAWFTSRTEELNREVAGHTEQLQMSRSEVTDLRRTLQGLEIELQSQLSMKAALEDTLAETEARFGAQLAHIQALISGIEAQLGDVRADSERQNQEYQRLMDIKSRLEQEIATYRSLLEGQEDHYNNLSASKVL
With R173H, the “effect of a mutation on the interaction” value is listed as “with no effect”.

Variants of B1 are the subject of a further assay. The following applies: with pak5_human PAK5, Q9P286.
pak5_human PAK5, Q9P286, sequence (Q9P286 whole entry, looked up): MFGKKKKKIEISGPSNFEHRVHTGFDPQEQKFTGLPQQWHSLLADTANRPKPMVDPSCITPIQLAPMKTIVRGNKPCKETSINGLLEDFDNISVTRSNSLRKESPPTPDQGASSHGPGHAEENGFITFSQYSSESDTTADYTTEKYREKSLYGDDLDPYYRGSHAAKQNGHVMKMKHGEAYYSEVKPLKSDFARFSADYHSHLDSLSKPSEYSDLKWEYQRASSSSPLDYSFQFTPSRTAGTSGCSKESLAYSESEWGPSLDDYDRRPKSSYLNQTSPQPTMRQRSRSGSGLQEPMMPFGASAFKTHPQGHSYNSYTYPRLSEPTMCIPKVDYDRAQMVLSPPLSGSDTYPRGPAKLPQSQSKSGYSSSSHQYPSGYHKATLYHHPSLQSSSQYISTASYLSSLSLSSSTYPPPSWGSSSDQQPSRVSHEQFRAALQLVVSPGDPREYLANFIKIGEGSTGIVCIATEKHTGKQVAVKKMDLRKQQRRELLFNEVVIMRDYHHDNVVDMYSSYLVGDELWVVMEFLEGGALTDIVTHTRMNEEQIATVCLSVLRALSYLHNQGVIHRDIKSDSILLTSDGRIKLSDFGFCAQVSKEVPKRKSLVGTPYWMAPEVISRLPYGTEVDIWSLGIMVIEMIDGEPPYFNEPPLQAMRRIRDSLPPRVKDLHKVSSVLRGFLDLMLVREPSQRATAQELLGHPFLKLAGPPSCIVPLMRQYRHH
Consider V385L, for which the “effect of a mutation on the interaction” value is “with no effect”.

The variants in a further assay derive from B1. The following applies: with zn572_human ZNF572, Q7Z3I7.
zn572_human ZNF572, Q7Z3I7, sequence (Q7Z3I7 whole entry): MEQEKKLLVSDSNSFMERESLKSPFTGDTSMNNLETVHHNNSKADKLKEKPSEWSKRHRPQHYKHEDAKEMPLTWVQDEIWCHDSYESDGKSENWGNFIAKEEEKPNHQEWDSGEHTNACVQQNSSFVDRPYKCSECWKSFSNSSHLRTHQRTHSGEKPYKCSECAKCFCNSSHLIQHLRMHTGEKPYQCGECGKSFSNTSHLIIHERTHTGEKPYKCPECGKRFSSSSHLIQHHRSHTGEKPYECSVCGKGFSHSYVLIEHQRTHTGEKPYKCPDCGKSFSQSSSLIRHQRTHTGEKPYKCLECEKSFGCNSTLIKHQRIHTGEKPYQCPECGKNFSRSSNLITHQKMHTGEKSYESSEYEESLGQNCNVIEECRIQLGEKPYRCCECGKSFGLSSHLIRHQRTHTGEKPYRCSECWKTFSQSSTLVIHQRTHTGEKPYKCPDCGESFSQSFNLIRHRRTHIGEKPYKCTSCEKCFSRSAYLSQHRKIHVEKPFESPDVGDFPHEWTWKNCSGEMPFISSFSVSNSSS
Consider V385L, for which the “effect of a mutation on the interaction” value is “disrupting interaction strength”.

In a further assay the parent is B2. Particulars: with gors2_human GORASP2, Q9H8Y8.
M200V: the “effect of a mutation on the interaction” value is given as “with no effect”.

Turning to I288T, the “effect of a mutation on the interaction” value is recorded as “with no effect”.

The next assay covers variants of B2. The following applies: with sdcb1_human SDCBP.
M200V: the “effect of a mutation on the interaction” value is “disrupting interaction strength”.

In the case of I288T, the “effect of a mutation on the interaction” value is “disrupting interaction strength”.

Another assay covers variants of B2. The following applies: with kcd17_human KCTD17, Q8N5Z5.
kcd17_human KCTD17, Q8N5Z5, sequence (Q8N5Z5 whole entry): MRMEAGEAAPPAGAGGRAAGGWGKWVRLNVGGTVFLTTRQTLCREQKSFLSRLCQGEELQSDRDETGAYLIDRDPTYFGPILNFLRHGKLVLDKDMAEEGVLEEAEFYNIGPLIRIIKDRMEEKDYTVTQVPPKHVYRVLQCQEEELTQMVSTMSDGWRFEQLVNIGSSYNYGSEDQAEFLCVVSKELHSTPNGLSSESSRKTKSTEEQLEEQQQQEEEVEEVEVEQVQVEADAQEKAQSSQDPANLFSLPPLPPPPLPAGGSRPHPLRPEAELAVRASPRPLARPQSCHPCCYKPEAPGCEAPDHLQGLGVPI
With M200V, the “effect of a mutation on the interaction” value is “disrupting interaction strength”.

Variants of B2 are the subject of the next assay. Particulars: with psa3_human PSMA3, P25788.
psa3_human PSMA3, P25788, sequence (P25788 whole entry): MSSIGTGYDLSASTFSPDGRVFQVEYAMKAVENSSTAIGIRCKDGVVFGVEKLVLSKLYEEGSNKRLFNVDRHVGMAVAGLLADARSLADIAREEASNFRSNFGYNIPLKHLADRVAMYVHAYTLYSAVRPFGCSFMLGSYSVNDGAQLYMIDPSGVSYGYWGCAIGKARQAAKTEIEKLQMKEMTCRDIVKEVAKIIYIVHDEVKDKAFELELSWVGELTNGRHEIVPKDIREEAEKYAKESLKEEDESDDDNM
Regarding M200V, the “effect of a mutation on the interaction” value is “with no effect”.

For the variant I288T, the “effect of a mutation on the interaction” value is “disrupting interaction strength”.

A further assay covers variants of B3. The following applies: with rop1l_human ROPN1L.
Regarding N201S, the “effect of a mutation on the interaction” value was “with no effect”.

Consider E484K, for which the “effect of a mutation on the interaction” value is given as “with no effect”.

Regarding R398Q, the “effect of a mutation on the interaction” value was “with no effect”.

For R213Q, the “effect of a mutation on the interaction” value was “with no effect”.

As for R213W, the “effect of a mutation on the interaction” value was “with no effect”.

As to G518D, the “effect of a mutation on the interaction” value is recorded as “with no effect”.

On to M439T, for which the “effect of a mutation on the interaction” value is recorded as “with no effect”.

Variants of B4 are the subject of another assay. The following applies: with k2c4_human KRT4, P19013.
k2c4_human KRT4, P19013, sequence (P19013 whole entry): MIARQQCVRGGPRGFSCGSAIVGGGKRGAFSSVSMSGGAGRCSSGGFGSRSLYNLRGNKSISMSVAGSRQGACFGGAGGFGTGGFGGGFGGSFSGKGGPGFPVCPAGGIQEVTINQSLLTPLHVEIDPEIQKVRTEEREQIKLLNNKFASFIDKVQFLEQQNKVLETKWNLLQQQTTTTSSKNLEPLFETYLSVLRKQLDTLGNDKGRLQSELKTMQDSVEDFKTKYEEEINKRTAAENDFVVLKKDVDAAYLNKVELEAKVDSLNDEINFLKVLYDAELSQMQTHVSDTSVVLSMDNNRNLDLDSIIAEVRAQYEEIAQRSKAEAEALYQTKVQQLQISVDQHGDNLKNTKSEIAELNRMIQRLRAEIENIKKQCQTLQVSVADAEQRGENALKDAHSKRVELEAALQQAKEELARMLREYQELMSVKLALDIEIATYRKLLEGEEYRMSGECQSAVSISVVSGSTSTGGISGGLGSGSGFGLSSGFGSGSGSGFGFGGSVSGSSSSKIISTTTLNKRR
For I318V, the “effect of a mutation on the interaction” value was “with no effect”.

Regarding Q223R, the “effect of a mutation on the interaction” value is “with no effect”.

Regarding E85K, the “effect of a mutation on the interaction” value is given as “with no effect”.

Regarding R66H, the “effect of a mutation on the interaction” value is “disrupting interaction strength”.

Variants of B4 are the subject of the next assay. The following applies: with KRT79, Q5XKE5.
KRT79, Q5XKE5, sequence (Q5XKE5 whole entry): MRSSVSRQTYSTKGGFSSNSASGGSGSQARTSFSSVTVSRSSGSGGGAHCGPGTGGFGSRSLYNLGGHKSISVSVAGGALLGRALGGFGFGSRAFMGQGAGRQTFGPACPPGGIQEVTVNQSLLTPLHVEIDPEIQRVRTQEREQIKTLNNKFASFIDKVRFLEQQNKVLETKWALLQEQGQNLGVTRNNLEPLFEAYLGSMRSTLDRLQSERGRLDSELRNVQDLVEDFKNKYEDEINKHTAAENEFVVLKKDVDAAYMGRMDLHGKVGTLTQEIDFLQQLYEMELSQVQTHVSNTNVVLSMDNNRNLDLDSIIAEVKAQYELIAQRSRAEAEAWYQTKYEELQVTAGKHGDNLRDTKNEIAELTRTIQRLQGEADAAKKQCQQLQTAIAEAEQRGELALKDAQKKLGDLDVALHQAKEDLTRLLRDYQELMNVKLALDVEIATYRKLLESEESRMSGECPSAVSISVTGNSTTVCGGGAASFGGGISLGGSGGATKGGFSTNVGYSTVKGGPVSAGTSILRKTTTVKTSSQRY
Take Y294D: the “effect of a mutation on the interaction” value was “with no effect”.

In another assay the parent is B5. Particulars: with fsd2_human FSD2, A1L4K1.
As to E141Q, the “effect of a mutation on the interaction” value is reported as “disrupting interaction strength”.

In the next assay the parent is B6. The following applies: with stk16_human STK16, O75716.
stk16_human STK16, O75716, sequence (O75716 whole entry): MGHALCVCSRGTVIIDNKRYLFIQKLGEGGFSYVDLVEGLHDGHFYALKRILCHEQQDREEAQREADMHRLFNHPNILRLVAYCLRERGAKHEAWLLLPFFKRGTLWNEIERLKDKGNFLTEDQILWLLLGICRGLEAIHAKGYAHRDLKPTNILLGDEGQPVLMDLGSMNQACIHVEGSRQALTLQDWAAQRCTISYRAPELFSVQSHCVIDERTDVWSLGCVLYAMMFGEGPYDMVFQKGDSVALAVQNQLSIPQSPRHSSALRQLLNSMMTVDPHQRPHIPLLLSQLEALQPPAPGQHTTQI
Regarding R171C, the “effect of a mutation on the interaction” value is reported as “with no effect”.

Variants of B7 are the subject of a further assay. The following applies: with FAM118A.
As for A275T, the “effect of a mutation on the interaction” value is given as “with no effect”.
